How the values were obtained:
KMH2 (PSMA-low) cells = test: JNG NFAT-GFP induction on co-culture with KMH2
Huh-7 cells = test: JNG NFAT-GFP induction on co-culture with Huh-7
RAJI cells = test: JNG assay, co-culture with RAJI cells; format: cell-based; conditions: JNG cells expressing construct, co-culture with Raji
Outline: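 Jurkat NFAT-GFP (JNG) cells stably transduced with SARs by lentivirus, with drug selection where the construct carried a resistance gene, then co-cultured with target cells at E:T ~1:2 for ~4–18 h. % GFP-positive cells measured by FACS against parental JNG; +/- to 5+ correspond to ~5–50% GFP-positive.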

HEL 92.1.7 cells = test: JNG assay, co-culture with HEL 92.1.7 cells; format: cell-based; conditions: co-culture with HEL 92.1.7
Protocol: Cellular supernatant is collected and assayed for the induction of cytokines (e.g., IL2).
JNG (Jurkat cells expressing EGFP under an NFAT promoter) were infected with lentiviral vectors encoding different single chain and multi-chain SARs by spinfection in the presence of 8 µg/ml of Polybrene® (Sigma, Catalog no. H9268). The Jurkat-NFAT-GFP cells are engineered in such a way that the IL-2 promoter, which carries NFAT binding sites, is cloned upstream of the GFP gene. These cells have been used to study signaling via TCR and CAR. The different SARs were stably expressed in Jurkat NFAT-GFP cells by lentiviral mediated gene transfer, followed by selection with puromycin or blasticidin. No drug selection was used in case the construct lacked an antibiotic resistance gene. The SAR-expressing Jurkat-NFAT-GFP cells were cocultured with the target cells at E:T ratio of approximately 1:2 for approximately 4 hours to 18 hours. When the interaction between SIRs and their target antigen results in activation of the NFAT pathway, GFP expression is induced. […] GFP expression was monitored by FACS analysis. The Jurkat-NFAT-GFP (parental) cells were used as control. The structure of different constructs can be determined based on their names. […] The sequence of the other constructs in the table can be similarly determined from their names and by referring to the different Tables of this disclosure that provide the names and SEQ ID NO of the different modules. Alternatively, the composition and modular architecture of the different SAR constructs can be determined from their sequences by bioinformatics tools, including using nucleic acid and amino acids homology searches. […] The signs +/-, +, 2+ etc. after the name of the cell lines indicate the relative degree of positivity on the Jurkat-NFAT-GFP assay as measured by the % GFP positive cells after culture of the SAR expressing Jurkat-NFAT-GFP cells with that cell line above the % GFP cells observed in parental Jurkat NFAT-GFP cells serving as controls. […]

B1: 21887 (protein)
chain: MALPVTALLLPLALLLHAARPDIQMTQSPSSLSASVGDRVTITCKASQDVGTAVDWYQQKPGKAPKLLIYWASTRHTGVPSRFSGSGSGTDFTLTISSLQPEDFATYYCQQYNSYPLTFGQGTKVEIKRLEPSEAEISHTQKATLVCLATGFYPDHVELSWWVNGKEVHSGVCTDPQPLKEQPALNDSRYCLSSRLRVSATFWQNPRNHFRCQVQFYGLSENDEWTQDRAKPVTQIVSAEAWGRADCGFTSESYQQGVLSATILYEILLGKATLYAVLVSALVLMAMVKRKDSRGRAKRSGSGATNFSLLKQAGDVEENPGPTSMDWIWRILFLVGAATGAHSFEVQLVESGGGLVQPGGSLRLSCAASGYTFTEYTIHWVRQAPGKGLEWVANINPNNGGTTYNQKFEDRFTISRDNSKNTLYLQMNSLRAEDTAVYYCARGWNFDYWGQGTLVTVSSTRDKSVCLFTDFDSQTNVSQSKDSDVYITDKCVLDMRSMDFKSNSAVAWSNKSDFACANAFNNSIIPEDTFFPSPESSCDVKLVEKSFETDTNLNFQNLSVIGFRILLLKVAGFNLLMTLRLWSSRAKRSGSGVKQTLNFDLLKLAGDVESNPGPSRGHMTEYKPTVRLATRDDVPRAVRTLAAAFADYPATRHTVDPDRHIERVTELQELFLTRVGLDIGKVWVADDGAAVAVWTTPESVEAGAVFAEIGPRMAELSGSRLAAQQQMEGLLAPHRPKEPAWFLATVGVSPDHQGKGLGSAVVLPGVEAAERAGVPAFLETSAPRNLPFYERLGFTVTADVEVPEGPRTWCMTRKPGA
NFAT-GFP ASSAY: KMH2 (KMH2 (PSMA-low) cells): negligible GFP induction | NFAT-GFP ASSAY: Huh-7 (Huh-7 cells): negligible GFP induction

B2: 21892 (protein)
chain: MALPVTALLLPLALLLHAARPDIQMTQSPSSLSASVGDRVTITCKASQDVGTAVDWYQQKPGKAPKLLIYWASTRHTGVPSRFSGSGSGTDFTLTISSLQPEDFATYYCQQYNSYPLTFGQGTKVEIKRLEDLKNVFPPEVAVFEPSEAEISHTQKATLVCLATGFYPDHVELSWWVNGKEVHSGVCTDPQPLKEQPALNDSRYCLSSRLRVSATFWQNPRNHFRCQVQFYGLSENDEWTQDRAKPVTQIVSAEAWGRADCGFTSESYQQGVLSATILYEILLGKATLYAVLVSALVLMAMVKRKDSRGRAKRSGSGATNFSLLKQAGDVEENPGPTSMDWIWRILFLVGAATGAHSFEVQLVESGGGLVQPGGSLRLSCAASGYTFTEYTIHWVRQAPGKGLEWVANINPNNGGTTYNQKFEDRFTISRDNSKNTLYLQMNSLRAEDTAVYYCARGWNFDYWGQGTLVTVSSTRIQNPDPAVYQLRDSKSSDKSVCLFTDFDSQTNVSQSKDSDVYITDKCVLDMRSMDFKSNSAVAWSNKSDFACANAFNNSIIPEDTFFPSPESSCDVKLVEKSFETDTNLNFQNLSVIGFRILLLKVAGFNLLMTLRLWSSRAKRSGSGVKQTLNFDLLKLAGDVESNPGPSRGHMTEYKPTVRLATRDDVPRAVRTLAAAFADYPATRHTVDPDRHIERVTELQELFLTRVGLDIGKVWVADDGAAVAVWTTPESVEAGAVFAEIGPRMAELSGSRLAAQQQMEGLLAPHRPKEPAWFLATVGVSPDHQGKGLGSAVVLPGVEAAERAGVPAFLETSAPRNLPFYERLGFTVTADVEVPEGPRTWCMTRKPGA
NFAT-GFP ASSAY: KMH2 (KMH2 (PSMA-low) cells): negligible GFP induction | NFAT-GFP ASSAY: Huh-7 (Huh-7 cells): negligible GFP induction

B3: 22148 (protein)
chain: MALPVTALLLPLALLLHAARPACEVQLLESGGGLIQPGGSLRLSCAASGFTFSSHAMTWVRQAPGKGLEWVSAISGSGDYTHYADSVKGRFTISRDNSKNTVYLQMNSLRAEDSAVYYCAKDEDGGSLLGHRGQGTLVTVSSGTGGGGSGGGGSGGGGSEFDVVMTQSPSSLSASVGDRVTITCMASEDIYIRLAWYQQKPGNAPKLLIYAATSLETGVPSRFSGSGSGTDFTLTISSLQPEDFATYYCQQYWSSPWTFGGGTKVEIKLEGQPKANPTVTLFPPSSEELQANKATLVCLISDFYPGAVTVAWKADGSPVKAGVETTKPSKQSNNKYAASSYLSLTPEQWKSHRSYSCQVTHEGSTVEKTVAPTECSPIKTDVITMDPKDNCSKDANDTLLLQLTNTSAYYMYLLLLLKSVVYFAIITCCLLRRTAFCCNGEKSRAKRSGSGATNFSLLKQAGDVEENPGPTSATMDWIWRILFLVGAATGAHSGPQVQLQESGGGLAQAGGSLRLSCAASGRTFSMGWFRQAPGKEREFVAAITYSGGSPYYASSVRGRFTISRDNAKNTVYLQMNSLKPEDTAVYYCAANPTYGSDWNAENWGQGTQVTVSSGSGGGGSGGGGSGGGGSFEQVQLQESGPGLVKPSQTLSLTCTVSGYSITSDYTWNWIRQPPGNGLEWIGYITYSGSTSYNPSLKSRVLISVDTSKNQVSLKLSSVTAADTAVYYCARLGRRYTMDYWGQGTTVTVSSTRASTKGPSVFPLAPSSKSTSGGTAALGCLVKDYFPEPVTVSWNSGALTSGVHTFPAVLQSSGLYSLSSVVTVPSSSLGTQTYICNVNHKPSNTKVDKRVEPKSCEVKTDSTDHVKPKETENTKQPSKSCHKPKAIVHTEKVNMMSLTVLGLRMLFAKTVAVNFLLTAKLFFLRAKRSGSGVKQTLNFDLLKLAGDVESNPGPSRGHMTEYKPTVRLATRDDVPRAVRTLAAAFADYPATRHTVDPDRHIERVTELQELFLTRVGLDIGKVWVADDGAAVAVWTTPESVEAGAVFAEIGPRMAELSGSRLAAQQQMEGLLAPHRPKEPAWFLATVGVSPDHQGKGLGSAVVLPGVEAAERAGVPAFLETSAPRNLPFYERLGFTVTADVEVPEGPRTWCMTRKPGA
NFAT-GFP ASSAY: Raji (RAJI cells): 3+ (refer to approximately 5%, 10%, 20%, 30%, 40% and 50% GFP positive cells) | NFAT-GFP ASSAY: HEL 92.1.7 (HEL 92.1.7 cells): + (refer to approximately 5%, 10%, 20%, 30%, 40% and 50% GFP positive cells)

Source: patent US20230212319A1, “NOVEL ANTIGEN BINDING DOMAINS AND SYNTHETIC ANTIGEN RECEPTORS INCORPORATING THE SAME” (University of Southern California, priority 2020, published 2023)
